In patent US20040115667A1, “Dna-sequences, which code for an apoptosis signal transduction protein” (priority 2000, published 2004):
Entries after “also recorded” stand apart in the source; their conditions may differ. Peptide text beside a SMILES is read from it. * marks the point of attachment. Cbz = O=C(OCc1ccccc1)*; CH2F = FC*

Key:
[1] = tested on: Bcl-rambo-induced cell death (caspase-3 activity) in 293T cells; experiment: Effect of apoptosis inhibitors on apoptotic activity of full-length Bcl-rambo in 293T cells; format: cell-based, human
Protocol: The effect of different apoptosis inhibitors on the apoptotic activity of Bcl-rambo is investigated in FIG. 6. For this, 293T cells were transfected for 27 hours (shown in FIG. 6A) with 2 μg of Bcl-rambo expression plasmid and 0.5 μg of expression vectors encoding various apoptosis inhibitors, together with 0.5 μg of β-galactosidase expression vector.
(§1) 293T cells (3×10^5 cells) were sown on 60 mm culture dishes on the day before the transfection and then transiently cotransfected with 2 μg of Bcl-rambo expression plasmids and 0.2 μg of EGFP expression vector (pEGFP-C1, from Clontech) or with 0.5 μg of pCMV-β-galactosidase expression vector. The postnuclear lyzates were then analyzed with regard to the fluorescence intensity of EGFP, the galactosidase activity and the caspase-3 activity using a peptide substrate (Ac-DEVD-AMC, from Alexis). In order to be able to compare the individual measurements, the caspase-3 activity (measured as the number of times it was increased by the induction) was standardized using the fluorescence intensity of EGFP or the β-galactosidase activity.

[2] = tested on: caspase-3 activity in 293T cells; experiment: Caspase-3 activity / apoptosis in 293T cells transfected with Bcl-rambo constructs; format: cell-based, human; conditions: 2 μg construct, 42 hours; for increase in caspase-3 activity (times increase in activity induced): standardized by EGFP fluorescence
Protocol: FIG. 5 describes the Bcl-rambo-induced apoptosis which is induced by the C-terminal domain of Bcl-rambo. For this, 293T cells were transfected with 2 μg of various Bcl-rambo constructs, namely mock transfectants, full-length Bcl-rambo (amino acids 1-485), Bcl-rambo without the C-terminal anchor domain (amino acids 1-459), the N-terminal domain of homology with Bcl-2 (amino acids 1-223), the C-terminal domain containing the BHNo region (amino acids 205-485), the C-terminal domain without the anchor region (amino acids 205-459) and, finally, a truncated N-terminal domain (amino acids 1-201). All the abovementioned constructs are depicted diagrammatically in FIG. 5 (right-hand drawing), with the BH regions (BH4 (4), BH3 (3), BH1 (1) and BH2 (2)) and also, if present, the tandem repeats and/or the anchor regions (MA) being shown diagrammatically. The transfection, which took place jointly together with 0.2 μg of an EGFP expression vector, namely pEGFP-C1, lasted for 42 hours. The graph shown in the upper left of FIG. 5 plots the caspase-3 activity (as the times increase in activity induced). The activity in the individual experimental assays was standardized by taking into account the fluorescence intensity of transfected EGFP, i.e. the cotransfection with the EGFP expression vector was used to check the transfection rate in order to ensure that it was possible to compare the results in the different experimental assays.
It follows from the results of the experiments depicted in FIG. 5 that the BHNo domain (and not, for example, the domain having homology with Bcl-2) is responsible for inducing cell death when Bcl-rambo is overexpressed. […] In the case of all the cell extracts, the strength of the expression of the individual constructs in the transfected cells was checked by Western blot analysis using anti-Flag antibody M2 (lower left-hand diagram in FIG. 5).
as §1

[3] = tested on: proapoptotic proteins Bax, Bak, Bik, Bid, Bim, Bad and Bcl-rambo; experiment: Co-immunoprecipitation of Bcl-rambo with proapoptotic proteins of the Bcl-2 family in 293T cells; format: binding; conditions: anti-Flag M2 agarose immunoprecipitation, anti-EE blot, also with z-VAD-fmk
[4] = tested on: antiapoptotic proteins (Bcl-2, Bcl-XL, Bcl-w, A1, MCL-1, E1B-19K and BHRF1); experiment: Co-immunoprecipitation of Bcl-rambo with antiapoptotic proteins of the Bcl-2 family in 293T cells; format: binding; conditions: HA-labeled Bcl-rambo with Flag-labeled antiapoptotic protein
[5] = molecular target: T1, proapoptotic proteins Bax, Bak, Bik, Bid, Bim, Bad and Bcl-rambo (Homo sapiens, UniProt Q9BXK5); experiment: Co-immunoprecipitation of Bcl-rambo with proapoptotic proteins of the Bcl-2 family in 293T cells; format: binding; conditions: co-immunoprecipitation
T1 construct: expressed in transfected cells; host or cells: 293T cells

c-IAP2: apoptosis inhibitor of the IAP family, coexpressed
blocking of Bcl-rambo-induced cell death by coexpressed apoptosis inhibitor ([1]; 293T cells, 27 hours, 2 μg Bcl-rambo plasmid, 0.5 μg inhibitor vector, standardized by β-galactosidase): act as inhibitors; also recorded: inhibitory effect

COC(=O)C[C@H](NC(=O)[C@H](C)NC(=O)[C@@H](NC(=O)OCc1ccccc1)C(C)C)C(=O)CF [z-VAD-fmk, reference compound] (Cbz-Val-Ala-Asp(OMe)-CH2F)
suppression of Bcl-rambo-induced cell death by pancaspase inhibitor ([1]; not depicted in FIG. 6): completely suppressed

B1: 1-203: truncated N-terminal domain of Bcl-rambo; printed 1-203, elsewhere 1-201 (protein, UniProt Q9BXK5 1-201, looked up, fragment)
chain: MASSSTVPLGFHYETKYVVLSYLGLLSQEKLQEQHLSSPQGVQLDIASQSLDQEILLKVKTEIEEELKSLDKEISEAFTSTGFDRHTSPVFSPANPESSMEDCLAHLGEKVSQELKEPLHKALQMLLSQPVTYQAFRECTLETTVHASGWNKILVPLVLLRQMLLELTRRGQEPLSALLQFGVTYLEDYSAEYIIQQGGWG
effect on cell survival / induction of cell death on overexpression [2]: no effect on cell survival rate

B2: 205-459 construct: C-terminal domain of Bcl-rambo without the anchor region (amino acids 205-459) (protein, UniProt Q9BXK5 205-459, looked up, fragment)
chain: SLESEEEEYPGITAEDSNDIYILPSDNSGQVSPPESPTVTTSWQSESLPVSLSASQSWHTESLPVSLGPESWQQIAMDPEEVKSLDSNGAGEKSENNSSNSDIVHVEKEEVPEGMEEAAVASVVLPARELQEALPEAPAPLLPHITATSLLGTREPDTEVITVEKSSPATSLFVELDEEEVKAATTEPTEVEEVVPALEPTETLLSEKEINAREESLVEELSPASEKKPVPPSEGKSRLSPAGEMKPMPLSEGKS
effect on cell survival / induction of cell death on overexpression [2]: no longer able to elicit cell death

B3: amino acids 1-223: N-terminal domain of Bcl-rambo with homology to Bcl-2 (protein, UniProt Q9BXK5 1-223, looked up, fragment)
chain: MASSSTVPLGFHYETKYVVLSYLGLLSQEKLQEQHLSSPQGVQLDIASQSLDQEILLKVKTEIEEELKSLDKEISEAFTSTGFDRHTSPVFSPANPESSMEDCLAHLGEKVSQELKEPLHKALQMLLSQPVTYQAFRECTLETTVHASGWNKILVPLVLLRQMLLELTRRGQEPLSALLQFGVTYLEDYSAEYIIQQGGWGTVFSLESEEEEYPGITAEDSND
protein/protein interaction with proapoptotic Bcl-2 family proteins [3]: does not interact with other proteins of the Bcl-2 family | interaction with antiapoptotic Bcl-2 family proteins [4]: does not interact with other proteins of the Bcl-2 family | effect on cell survival / induction of cell death on overexpression [2]: no effect on cell survival rate

B4: full-length Bcl-rambo: full-length human Bcl-rambo protein, amino acids 1-485, expressed from plasmid (protein, UniProt Q9BXK5 1-485, looked up)
chain: MASSSTVPLGFHYETKYVVLSYLGLLSQEKLQEQHLSSPQGVQLDIASQSLDQEILLKVKTEIEEELKSLDKEISEAFTSTGFDRHTSPVFSPANPESSMEDCLAHLGEKVSQELKEPLHKALQMLLSQPVTYQAFRECTLETTVHASGWNKILVPLVLLRQMLLELTRRGQEPLSALLQFGVTYLEDYSAEYIIQQGGWGTVFSLESEEEEYPGITAEDSNDIYILPSDNSGQVSPPESPTVTTSWQSESLPVSLSASQSWHTESLPVSLGPESWQQIAMDPEEVKSLDSNGAGEKSENNSSNSDIVHVEKEEVPEGMEEAAVASVVLPARELQEALPEAPAPLLPHITATSLLGTREPDTEVITVEKSSPATSLFVELDEEEVKAATTEPTEVEEVVPALEPTETLLSEKEINAREESLVEELSPASEKKPVPPSEGKSRLSPAGEMKPMPLSEGKSILLFGGAAAVAILAVAIGVALALRKK
modifications: full-length
notes: full-length human Bcl-rambo protein, amino acids 1-485, expressed from plasmid
protein/protein interaction with proapoptotic Bcl-2 family proteins [3]: not possible to detect any protein/protein interaction | homodimer formation [5]: Nor can any homodimers be detected | interaction with antiapoptotic Bcl-2 family proteins [4]: not possible to detect any interactions; also recorded: no interactions were observed | effect on cell survival / induction of cell death on overexpression [2]: marked proapoptotic effect | increase in caspase-3 activity (times increase in activity induced) [2]: approx. 70 fold

B5: C-terminal BHNo domain (amino acids 205-459): C-terminal domain with BHNo region and membrane anchor; range printed as 205-459, probably 205-485 (protein, UniProt Q9BXK5 205-485, looked up, fragment)
chain: SLESEEEEYPGITAEDSNDIYILPSDNSGQVSPPESPTVTTSWQSESLPVSLSASQSWHTESLPVSLGPESWQQIAMDPEEVKSLDSNGAGEKSENNSSNSDIVHVEKEEVPEGMEEAAVASVVLPARELQEALPEAPAPLLPHITATSLLGTREPDTEVITVEKSSPATSLFVELDEEEVKAATTEPTEVEEVVPALEPTETLLSEKEINAREESLVEELSPASEKKPVPPSEGKSRLSPAGEMKPMPLSEGKSILLFGGAAAVAILAVAIGVALALRKK
increase in caspase-3 activity (times increase in activity induced) [2]: approx. 80 fold
